According to publication PMC9856709 (Cancers, 2023):
“Also recorded” adds a separate entry of the source. Numbered stars: 1 amine (or outer) side, 2 acyl side, 3 side chain; on linkers, the order of the positions; unused ones are H or OH. Square brackets hold non-standard residues; d marks the D form. Peptide text beside a SMILES is read from it. * marks the point of attachment. NOTA = O=C(O)CN1CCN(CC(=O)O)CCN(CC(=O)*)CC1; γGlu = O=C(O)[C@H](CCC(=O)[*:2])N[*:1]; Sta = CC(C)C[C@H](N)[C@@H](O)CC(=O)O; AEEA = NCCOCCOCC(=O)O; Aoc = NCCCCCCCC(=O)O; CO = O=C([*:1])[*:2]

Legend:
[1] = Stability in PBS and EDTA challenge; assay type: physicochemical; details: 1 h, ITLC
Method: After 1 h, samples were taken from all solutions and analysed by ITLC.

PC3-pip cell line = experiment: Cellular processing in PC3-pip cells; assay type: cell-based, human; details: 1 nM, 37 °C
Method: In vitro experiments were carried out using the PSMA- and GRPR-expressing human prostate carcinoma PC3-pip cell line (obtained from Prof. Martin Pomper, The Johns Hopkins University, Baltimore, MD, USA). Cells (5–7 × 10^5 cells/vial) were seeded 24–48 h before the experiments. All experiments were performed in triplicate.
At selected time points (1 and 3 h), cells were collected, and the total cell-associated activity was measured using an automated gamma counter. At 3 h, the membrane-bound and internalised fractions were collected separately using the acid and base method described earlier.

Wistar rats = experiment: Acute and subacute toxicity in rats; assay type: in vivo
Method: The animals were kept in a barrier-type animal facility under standard housing conditions. […] The dose of heterodimer for toxicological studies was calculated based on cross-species dose conversion using body surface area scaling: the maximum dose for the clinical study was chosen to be 300 µg of heterodimer per 75 kg patient, or […], which corresponds to [(4 µg × 427 g)/1000 g] × 6 = 10.3 µg per rat. Ten rats from each group were euthanized at 24 h pi and five rats at 28 days pi. The body weight of the rats was controlled at baseline, at 24 h after administration for the acute toxicity group, and every second day for the subacute toxicity group. Biochemical blood tests on alanine aminotransferase, albumin, aspartate aminotransferase, bilirubin, glucose, creatinine, urea, the total amount of proteins, cholesterol, and ALT were performed before the euthanasia. Necropsy of the experimental rats was performed, and the weights of the brain, heart, lungs, liver, adrenal glands, kidneys, spleen, testes, and thymus were measured.

[2] = 3 h, acid and base method, triplicate

CC(C)C[C@H](NC(=O)C[C@H](O)[C@H](CC(C)C)NC(=O)[C@H](Cc1c[nH]cn1)NC(=O)CNC(=O)[C@@H](NC(=O)[C@H](C)NC(=O)[C@H](Cc1c[nH]c2ccccc12)NC(=O)[C@H](CCC(N)=O)NC(=O)[C@@H](Cc1ccccc1)NC(=O)COCCOCCNC(=O)[C@H](CCCCNC(=O)CN1CCN(CC(=O)O)CCN(CC(=O)O)CC1)NC(=O)[C@H](Cc1ccccc1)NC(=O)CCCCCCCNC(=O)CC[C@H](NC(=O)N[C@@H](CCC(=O)O)C(=O)O)C(=O)O)C(C)C)C(N)=O [[^68Ga]Ga-BQ7812, metal not drawn] ({Glu-CO-γGlu-Aoc}-FK(NOTA)[AEEA][dF]QWAVGH[Sta]L-NH2)
Release of free gallium-68 under EDTA challenge ([1]; 1000-fold molar excess EDTA): minor release
Release of free gallium-68 in PBS ([1]; PBS, room temperature): minor release
Binding to the targets in cellular processing (PC3-pip cell line; 1 and 3 h): rapid binding
Internalised fraction of total cell-associated activity (PC3-pip cell line; [2]): approximately 20%
Membrane-bound fraction of total cell-associated activity (PC3-pip cell line; [2]): ~80%
Clinical or biochemical parameters in toxicological studies (Wistar rats; single iv bolus 10.3 μg (10 MBq for labelled), 24 h and 28 days pi, vs control groups): no changes
Toxicity conclusion (Wistar rats; single iv bolus 10.3 μg, acute (24 h) and subacute (28 days)): absence of toxicity; also recorded: safe toxicological profile
